In the RNAGym collection of RNA variant scans (doi:10.7554/elife.80360):

B1: CPEB3 Ribozyme (parent)
chain: GGGGGCCACAGCAGAAGCGUUCACGUCGCGGCCCCUGUCAGAUUCUGGUGAAUCUGCGAAUUCUGCUGU

Variants of: B1
Experiment: self-cleavage, relative activity (ratio to wild type); higher = more cleavage; co-transcriptional

Which self-cleavage does the source give for GGGGGCCACAGCAGAAGCGUUCACGUCGCGGCCCCUGUCAGAUUCGGGUGAAUCUGCGAAUUCGGCUGU [U46G U64G] here?
The self-cleavage was 0.885.

With GGGGGCCACAGCAGAAGCGUUCACGUCGCGGCCCCUGUCAGAUUCGGGUGAAUCUGCGAAUUCAGCUGU [U46G U64A] as the variant, how does the self-cleavage read?
Its self-cleavage is 0.916.

For GGGGGCCACAGCAGAAGCGUUCACGUCGCGGCCCCUGUCAGAUUCGGGUGAAUCUGCGAAUUCCGCUGU [U46G U64C], which self-cleavage is on record?
The self-cleavage was 0.927.

With GGGGGCCACAGCAGAAGCGUUCACGUCGCGGCCCCUGUCAGAUUCUAGUGAAUCUGCGAAUUCUGGUGU [G47A C66G] as the variant, how does the self-cleavage read?
Its self-cleavage is 0.953.

Which self-cleavage does the source give for GGGGGCCACAGCAGAAGCGUUCACGUCGCGGCCCCUGUCAGAUUCUAGUGAAUCUGCGAAUUCUGUUGU [G47A C66U] here?
The self-cleavage was 0.959.

Which self-cleavage does the source give for GGGGGCCACAGCAGAAGCGUUCACGUCGCGGCCCCUGUCAGAUUCGGGUGAAUCUGCGAAUUCUCCUGU [U46G G65C] here?
Its self-cleavage is 0.681.

For GGGGGCCACAGCAGAAGCGUUCACGUCGCGGCCCCUGUCAGAUUCGGGUGAAUCUGCGAAUUCUGCUCU [U46G G68C], which self-cleavage is on record?
The self-cleavage was 1.04.

With GGGGGCCACAGCAGAAGCGUUCACGUCGCGGCCCCUGUCAGAUUCGGGUGAAUCUGCGAAUUCUGCUUU [U46G G68U] as the variant, how does the self-cleavage read?
The self-cleavage was 0.971.

With GGGGGCCACAGCAGAAGCGUUCACGUCGCGGCCCCUGUCAGAUUCCGGUGAAUCUGCGAAUUCUGCCGU [U46C U67C] as the variant, how does the self-cleavage read?
Its self-cleavage is 0.962.

Which self-cleavage does the source give for GGGGGCCACAGCAGAAGCGUUCACGUCGCGGCCCCUGUCAGAUUCCGGUGAAUCUGCGAAUUCUGCAGU [U46C U67A] here?
Its self-cleavage is 0.938.

For GGGGGCCACAGCAGAAGCGUUCACGUCGCGGCCCCUGUCAGAUUCCGGUGAAUCUGCGAAUUCUGCGGU [U46C U67G], which self-cleavage is on record?
The self-cleavage was 0.977.

With GGGGGCCACAGCAGAAGCGUUCACGUCGCGGCCCCUGUCAGAUUCUAGUUAAUCUGCGAAUUCUGCUGU [G47A G50U] as the variant, how does the self-cleavage read?
The self-cleavage was 1.01.

For GGGGGCCACAGCAGAAGCGUUCACGUCGCGGCCCCUGUCAGAUUCGGGCGAAUCUGCGAAUUCUGCUGU [U46G U49C], which self-cleavage is on record?
Its self-cleavage is 1.04.

Which self-cleavage does the source give for GGGGGCCACAGCAGAAGCGUUCACGUCGCGGCCCCUGUCAGAUUCGGGAGAAUCUGCGAAUUCUGCUGU [U46G U49A] here?
The self-cleavage was 0.972.

For GGGGGCCACAGCAGAAGCGUUCACGUCGCGGCCCCUGUCAGAUUCUAGUGAAUCUGCGAUUUCUGCUGU [G47A A60U], which self-cleavage is on record?
The self-cleavage was 0.475.

With GGGGGCCACAGCAGAAGCGUUCACGUCGCGGCCCCUGUCAGAUUCUAGUGAAUCUGCGAAUUCUGCUGU [G47A] as the variant, how does the self-cleavage read?
Its self-cleavage is 1.

Which self-cleavage does the source give for GGGGGCCACAGCAGAAGCGUUCACGUCGCGGCCCCUGUCAGAUUCGGGUGGAUCUGCGAAUUCUGCUGU [U46G A51G] here?
Its self-cleavage is 0.618.

Which self-cleavage does the source give for GGGGGCCACAGCAGAAGCGUUCACGUCGCGGCCCCUGUCAGAUUCGGGUGCAUCUGCGAAUUCUGCUGU [U46G A51C] here?
The self-cleavage was 0.949.

With GGGGGCCACAGCAGAAGCGUUCACGUCGCGGCCCCUGUCAGAUUCGGGUGUAUCUGCGAAUUCUGCUGU [U46G A51U] as the variant, how does the self-cleavage read?
Its self-cleavage is 1.

Which self-cleavage does the source give for GGGGGCCACAGCAGAAGCGUUCACGUCGCGGCCCCUGUCAGAUUCGGGUGAAUCUGCUAAUUCUGCUGU [U46G G58U] here?
The self-cleavage was 0.955.

Which self-cleavage does the source give for GGGGGCCACAGCAGAAGCGUUCACGUCGCGGCCCCUGUCAGAUUCGGGUGAAUGUGCGAAUUCUGCUGU [U46G C54G] here?
The self-cleavage was 0.907.

For GGGGGCCACAGCAGAAGCGUUCACGUCGCGGCCCCUGUCAGAUUCUAGUGAAUCUGCGAAUUAUGCUGU [G47A C63A], which self-cleavage is on record?
The self-cleavage was 0.898.

Which self-cleavage does the source give for GGGGGCCACAGCAGAAGCGUUCACGUCGCGGCCCCUGUCAGAUUCUAGUGAAUCUACGAAUUCUGCUGU [G47A G56A] here?
Its self-cleavage is 1.

For GGGGGCCACAGCAGAAGCGUUCACGUCGCGGCCCCUGUCAGAUUCUAGUGAAUCUUCGAAUUCUGCUGU [G47A G56U], which self-cleavage is on record?
The self-cleavage was 1.01.

Which self-cleavage does the source give for GGGGGCCACAGCAGAAGCGUUCACGUCGCGGCCCCUGUCAGAUUCUAGUGAGUCUGCGAAUUCUGCUGU [G47A A52G] here?
The self-cleavage was 0.969.

With GGGGGCCACAGCAGAAGCGUUCACGUCGCGGCCCCUGUCAGAUUCGGGUGAUUCUGCGAAUUCUGCUGU [U46G A52U] as the variant, how does the self-cleavage read?
Its self-cleavage is 0.981.

For GGGGGCCACAGCAGAAGCGUUCACGUCGCGGCCCCUGUCAGAUUCUAGUGAAUCUGCGUAUUCUGCUGU [G47A A59U], which self-cleavage is on record?
The self-cleavage was 0.872.

For GGGGGCCACAGCAGAAGCGUUCACGUCGCGGCCCCUGUCAGAUUCGGGUGAAUCGGCGAAUUCUGCUGU [U46G U55G], which self-cleavage is on record?
Its self-cleavage is 0.83.

Which self-cleavage does the source give for GGGGGCCACAGCAGAAGCGUUCACGUCGCGGCCCCUGUCAGAUUCGGGUGAAUCAGCGAAUUCUGCUGU [U46G U55A] here?
Its self-cleavage is 0.899.

Which self-cleavage does the source give for GGGGGCCACAGCAGAAGCGUUCACGUCGCGGCCCCUGUCAGAUUCGGGUGAAUCCGCGAAUUCUGCUGU [U46G U55C] here?
Its self-cleavage is 0.936.

With GGGGGCCACAGCAGAAGCGUUCACGUCGCGGCCCCUGUCAGAUUCGGGUGAAUCUGCGAAUUCUGUUGU [U46G C66U] as the variant, how does the self-cleavage read?
Its self-cleavage is 0.986.

With GGGGGCCACAGCAGAAGCGUUCACGUCGCGGCCCCUGUCAGAUUCGGGUGAAUCUGCGAAUUCUGAUGU [U46G C66A] as the variant, how does the self-cleavage read?
Its self-cleavage is 0.786.

Which self-cleavage does the source give for GGGGGCCACAGCAGAAGCGUUCACGUCGCGGCCCCUGUCAGAUUCGGGUGAAUCUGCGAAUUCUGGUGU [U46G C66G] here?
The self-cleavage was 0.956.

With GGGGGCCACAGCAGAAGCGUUCACGUCGCGGCCCCUGUCAGAUUCGGGUGAAUCUGCGAAUUCUGCUGC [U46G U69C] as the variant, how does the self-cleavage read?
The self-cleavage was 1.07.

For GGGGGCCACAGCAGAAGCGUUCACGUCGCGGCCCCUGUCAGAUUCGGGUUAAUCUGCGAAUUCUGCUGU [U46G G50U], which self-cleavage is on record?
The self-cleavage was 0.962.

Which self-cleavage does the source give for GGGGGCCACAGCAGAAGCGUUCACGUCGCGGCCCCUGUCAGAUUCGGGUAAAUCUGCGAAUUCUGCUGU [U46G G50A] here?
Its self-cleavage is 0.981.

Which self-cleavage does the source give for GGGGGCCACAGCAGAAGCGUUCACGUCGCGGCCCCUGUCAGAUUCUAGUGAAUCUGCGAAUUCUCCUGU [G47A G65C] here?
Its self-cleavage is 0.79.

Which self-cleavage does the source give for GGGGGCCACAGCAGAAGCGUUCACGUCGCGGCCCCUGUCAGAUUCUAGUGAAUGUGCGAAUUCUGCUGU [G47A C54G] here?
The self-cleavage was 0.979.

With GGGGGCCACAGCAGAAGCGUUCACGUCGCGGCCCCUGUCAGAUUCUAGUGAAUAUGCGAAUUCUGCUGU [G47A C54A] as the variant, how does the self-cleavage read?
Its self-cleavage is 0.961.
